From patent CN107383198A (ZONHON BIOPHARMA INST INC, dated 2017)

Legend:
[1] = molecular target: T1, 提取于人血浆的胱抑素C (native human cystatin C, HyTest) (human, UniProt P01034 27-146); test: indirect ELISA, CysC (HyTest) coated at 1 μg/mL, hybridoma supernatant, HRP goat anti-mouse IgG
T1 construct: mature; also called CysC; 天然CysC蛋白
T1 sequence (looked up): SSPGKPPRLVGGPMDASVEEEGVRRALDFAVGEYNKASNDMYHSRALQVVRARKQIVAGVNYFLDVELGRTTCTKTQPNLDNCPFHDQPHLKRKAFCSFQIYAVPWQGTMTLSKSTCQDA

[2] = molecular target: T1, 提取于人血浆的胱抑素C (native human cystatin C, …); test: Western blot of native CysC (HyTest) with HRP-labelled scFv

B1: 抗体M12 (antibody secreted by hybridoma cell line M12) (antibody, V domains shown)
VH: QVQLQQPGSELVRPGTSVKLSCRASGYTFTSYWMHWVKQRHGQGLEWLGNVDPGSGTTNYEENFKTKGTLTVDTSSSTVYMHLSSLTSEDSAVYYCTAGFDYWGQGTTLTVSA
VL: DIQMNQSPSSLSASLGDTITITCHASQNINVWLGWFQQKPENIPKLLIYKASTLHTGVPSRFSGSGSGTVFTLTISSPQPEDIATYYCQQGQTYPLTFGAGTKLEIK
notes: Mouse monoclonal antibody tested as hybridoma culture supernatant and detected with HRP goat anti-mouse IgG
- binding result [1]: binds

B2: 单链抗体C12 (anti-human cystatin C scFv C12) (scFv)
scFv: QVQLQQPGSELVRPGTSVKLSCRASGYTFTSYWMHWVKQRHGQGLEWLGNVDPGSGTTNYEENFKTKGTLTVDTSSSTVYMHLSSLTSEDSAVYYCTAGFDYWGQGTTLTVSAGGGGSGGGGSGGGGSDIQMNQSPSSLSASLGDTITITCHASQNINVWLGWFQQKPENIPKLLIYKASTLHTGVPSRFSGSGSGTVFTLTISSPQPEDIATYYCQQGQTYPLTFGAGTKLEIK
notes: Used HRP-labelled in the Western blot and colloidal-gold-labelled in the test card; also called C12-scFv-(HIS)6; C12-HRP
- binding result [2]: binds
